T1: rat ASGR1 (Rattus norvegicus, UniProt P02706)
T1 construct: expressed in transfected cells; host or cells: CHO-S (transient)
T1 sequence (P02706 1-284): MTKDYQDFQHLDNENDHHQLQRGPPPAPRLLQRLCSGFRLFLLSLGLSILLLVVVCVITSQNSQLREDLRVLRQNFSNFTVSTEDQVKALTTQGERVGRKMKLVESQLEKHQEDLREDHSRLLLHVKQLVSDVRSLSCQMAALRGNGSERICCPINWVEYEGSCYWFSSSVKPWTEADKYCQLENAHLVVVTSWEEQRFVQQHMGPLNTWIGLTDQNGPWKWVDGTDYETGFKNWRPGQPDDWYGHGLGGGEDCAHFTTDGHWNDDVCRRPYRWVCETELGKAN

T2: human ASGR1 extracellular domain (ECD) (Homo sapiens, UniProt P07306)
T2 sequence (P07306 62-291 limits assumed): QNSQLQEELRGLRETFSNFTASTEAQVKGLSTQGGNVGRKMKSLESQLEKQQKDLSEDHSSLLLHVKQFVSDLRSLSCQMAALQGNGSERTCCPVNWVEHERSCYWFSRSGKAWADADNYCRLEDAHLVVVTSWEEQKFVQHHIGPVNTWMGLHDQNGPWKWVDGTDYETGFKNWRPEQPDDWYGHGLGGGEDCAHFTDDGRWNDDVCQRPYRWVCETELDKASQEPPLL

T3: HepG2 cells (which express ASGR1) (Homo sapiens, UniProt P07306)
T3 construct: endogenous in cells; host or cells: HepG2
T3 sequence (P07306 1-291): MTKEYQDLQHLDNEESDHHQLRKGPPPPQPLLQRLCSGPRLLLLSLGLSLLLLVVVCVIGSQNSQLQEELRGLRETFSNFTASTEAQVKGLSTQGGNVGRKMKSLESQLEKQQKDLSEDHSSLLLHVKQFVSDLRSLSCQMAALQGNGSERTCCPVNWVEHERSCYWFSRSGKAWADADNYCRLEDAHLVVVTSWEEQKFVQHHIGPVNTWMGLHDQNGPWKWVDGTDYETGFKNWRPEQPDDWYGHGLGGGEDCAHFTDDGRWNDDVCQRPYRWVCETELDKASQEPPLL


Tests used:
rat ASGR1 = target: T1, rat ASGR1; test: Binding to cell surface expressed rat ASGR1 (transiently transfected CHO-S cells, GUAVA)
Method: Anti-human ASGR1 antibodies of this disclosure were examined for cross-reactivity with Cynomolgus macaque and rat ASGR1. Briefly, sequence encoding Cynomolgus macaque or rat ASGR1 was transiently transfected into CHO-S cells. Transfected cells were before performing cell binding assay. A total of about 1.5×10^4 transfected cells/well were added to 96-well V-bottom assay plate, incubated at 37° C., 5% CO2 for 48-72 hours, and then washed with culture medium before adding 100 μl of each ASGR1 antibody at different concentrations starting from 100 nM and 3-fold dilutions to a total of eight wells. The cells with antibody were incubated for 40 minutes at 4° C., then washed three times with 200 μl of fresh culture medium. To each well was added 50 μl PE conjugated goat anti-human Fc (SouthernBiotech) at 1:200 dilution in culture medium and then incubated at 4° C. for 20 minutes. After washing the plate once, the treated cells were resuspended in 200 μl culture medium and then the stained cells were analyzed on GUAVA® using Incyte software.
Anti-human ASGR1 antibodies of this disclosure were examined for cross-reactivity with Cynomolgus macaque and rat ASGR1. […] After washing the plate once, the treated cells were resuspended in 200 μl culture medium and then the stained cells were analyzed on GUAVA® using Incyte software.

[1] = target: T2, human ASGR1 extracellular domain (ECD); test: Effect of calcium on anti-ASGR1 binding and dissociation (OCTET Red 96, Penta-His biosensors); parameters: key to Ca2+ sensitivity during association / Ca2+ sensitivity during dissociation / Ca2+ Sensitivity: N = No; Y = Yes; conditions: for Ca2+ sensitivity during association: binding to human ASGR1 ECD with or without calcium; for Ca2+ sensitivity during association / Ca2+ sensitivity during dissociation: OCTET; for Ca2+ sensitivity during dissociation: dissociation from human ASGR1 ECD with or without calcium; for Ca2+ Sensitivity: overall summary column
Method: The ability of anti-human ASGR1 antibodies of this disclosure to bind to human ASGR1 in the presence or absence of calcium in binding buffer was examined. Briefly, ASGR1 antibodies were bound to immobilized human ASGR1 extracellular domain (ECD) at saturating levels and subsequently dissociated under three different conditions as follows: (a) binding and dissociation with buffer containing calcium (PBS+1% BSA+0.2% Tween20+0.9 mM CaCl2), pH 7.4); (b) binding with buffer containing calcium and dissociation with buffer lacking calcium; and (c) binding and dissociation with buffer lacking calcium. Analysis of ASGR1 antibody binding to human ASGR1 ECD was performed using the OCTET® Red 96 instrument and analyzed using the OCTET®Data Analysis Software 9.0 (ForteBio). His-tagged human ASGR1 ECD was immobilized to OCTET® Penta-His biosensors and ASGR1 antibodies were subjected to avidity binding under the conditions described above. Association with the ASGR1 ECD was measured by the rate of and increase in magnitude of signal response at a given antibody concentration. Dissociation from the ASGR1 ECD was measured the rate of loss in signal upon removal of the antibody and further incubation with or without Ca^2+. […] Also tested were humanized antibodies hzH8K-1 and hzL4L-7.
Further analysis of the antibodies of this disclosure was to determine whether the presence of calcium was needed for binding (i.e., during association) of the antibodies to human ASGR1 ECD. […]

[2] = target: T3, HepG2 cells (which express ASGR1); test: Guava HepG2 cell binding screen of anti-ASGR1 mAbs; conditions: humanized L4L clones; Good / Poor
Method: Additionally, hybridomas producing monoclonal antibodies (mAbs) specific for human ASGR1 were prepared from Balb/C mice immunized with ASGR1-AviHis at a service provider using their propriety protocol. Antibody heavy and light chain sequences were obtained, amplified, and cloned. Clone supernatants containing the expressed mAbs were screened for binding to a human ASGR1-IgG1Fc fusion protein, and those with a positive signal as measured by enzyme linked immunosorbent assay (ELISA) were screened for cell binding on HepG2 cells (which express ASGR1). […] The isolated mAbs were further analyzed for the additional characteristics including, for example, titer, low aggregate content following protein A purification, high titer, lack of cross-blocking of ligand GalNac, calcium sensitivity, and cross-reactivity with rat ASGR1 protein.

| binding to rat ASGR1 (rat ASGR1) | Ca2+ sensitivity during association [1] | Ca2+ sensitivity during dissociation [1] | Ca2+ Sensitivity [1] | Guava HepG2 Screen [2] | calcium sensitivity of binding to human ASGR1 ECD ([1]; sensitive: difference in binding signal after dissociation with vs without calcium >±10%) | Molecule |
| --- | --- | --- | --- | --- | --- | --- |
| not rat cross-reactive | N | N | N | – | – | hzH8K-1: "humanized anti-ASGR1 antibodies hzH8K-1 and hzH8K-10 as compared to parent mouse anti-ASGR1 antibody H8K" (antibody, V domains shown) VH: QVQLQESGPGLVKPSQTLSLTCTVSGGSISSDYAWNWIRQHPGKGLEWIGYRSYRGSTSYNPSLKSRVTISVDTSKNQFSLKLSSVTAADTAVYYCARRGYYGSSSHWYFDVWGQGTTVTVSS VL: DIQMTQSPSSLSASVGDRVTITCRASENIYSYLAWYQQKPGKAPKLLIYNAKTLAEGVPSRFSGSGSGTDFTLTISSLQPEDFATYYCQHHYGTPLTFGGGTKVEIK |
| not rat cross-reactive | N | N | N | Good | lacking sensitivity to calcium | hzL4L-7: "humanized anti-ASGR1 antibodies hzL4L-7 and hzL4L-14 as compared to parent mouse anti-ASGR1 antibody L4L" (antibody, V domains shown) VH: QVQLQESGPGLVKPSQTLSLTCTVSGYSISSDYAWNWIRQHPGKGLEWIGYISYSGSTRYNPSLKSRVTITRDTSKNQFSLKLSSVTAADTAVYYCARRYRYDEGYGMDYWGQGTTVTVSS VL: DIQMTQSPSSLSASVGDRVTITCRASENIYSNLAWYQQKPGKAPKLLIYAATNLADGVPSRFSGSGSGTDFTLTISSLQPEDFATYYCQHFWGTPPWTFGGGTKVEIK |

From patent publication US20210130473A1, “TGFßR1 INHIBITOR-ASGR ANTIBODY CONJUGATES AND USES THEREOF” (Silverback Therapeutics, Inc., priority 2019, published 2021)
